Measured values reported in patent publication US20200230168, “NUCLEIC ACID OLIGOMERS AND USES THEREFOR” (Queensland University of Technology, published 2020).

Key:
THOC4 (ALYREF) = THOC4 (ALYREF) (UniProt Q86V81 Q86V81:2-257); assay: SPR
hSSB1 = hSSB1 (Homo sapiens, UniProt Q9BQ15 Q9BQ15:1-211); assay: SPR
hSSB1, sequence (Q9BQ15 whole entry, one chain of several): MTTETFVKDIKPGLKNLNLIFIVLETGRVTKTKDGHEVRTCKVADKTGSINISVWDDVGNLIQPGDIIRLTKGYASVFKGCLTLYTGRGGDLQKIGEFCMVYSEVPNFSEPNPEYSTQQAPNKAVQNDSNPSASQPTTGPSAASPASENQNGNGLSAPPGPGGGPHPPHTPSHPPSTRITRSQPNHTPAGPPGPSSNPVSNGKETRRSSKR

Binder	binding signal (THOC4 (ALYREF)) [normalized Rmax]	binding signal (hSSB1) [normalized Rmax]
CAGAGGCAGCAGUACGA (ssRNA, 2'-OMe all, full PS) [LSA_ATG 3' truncation 17 nt]	1.46	1.19
CAGCAGCAGAGUAUUUAUCAU (ssRNA, 2'-OMe all, full PS) [DKLS481254 (SEQ 31)]	0.46	1.1
GUCUCCGUCGUCAUGCUGCC (ssRNA, 2'-OMe all, full PS) [ASO_ATG (DKLS421748)]	0.33	0.64
ACAUGGUUCCCCGACAGUGUUA (ssRNA, 2'-OMe all, full PS) [DKLS687118 (SEQ 35)]	0.72	1.7
GGCGAAUGAGACUUCUCUUA (ssRNA, 2'-OMe all, full PS) [DKLS693540 (SEQ 27)]	0.89	1.64
CACGUACCUUAGUGCCUCAC (ssRNA, 2'-OMe all, ZEN at both ends) [Open_L ZEN (DKLS665920)]	-0.15	–
CAGAGGCAGCAGUACGACGG (ssRNA, 2'-OMe all, ZEN at both ends) [LSA_ATG ZEN (DKLS649218)]	–	0.15
CAGCAGCAGAGUCUUCAUCAU (ssRNA, 2'-OMe all, full PS) [DKLS354527 (SEQ 21)]	0.37	0.91
GUGCAUGGAAUCACGG (ssRNA, 2'-OMe all, full PS) [Open_A 3' truncation 16 nt]	0.29	0.66
GAGUAAACAUUCUGUGUGGAGUC (ssRNA, 2'-OMe all, full PS) [DKLS965031 (SEQ 17)]	0.64	1.35
CGGACUUGCCU (ssRNA, 2'-OMe all, full PS) [In3E3 5' truncation 11 nt]	0.01	0.09
CAGAGGCAGCAGUACGACG (ssRNA, 2'-OMe all, full PS) [LSA_ATG 3' truncation 19 nt]	0.92	0.78
UACCGCGUGCGACCCUCU (ssRNA, full PS) [DKLS371273 (SEQ 7)]	0.81	1.05
GGUCGUAAUACUUUCACUUA (ssRNA, 2'-OMe all, full PS) [DKLS629224 (SEQ 12)]	0.47	0.97
ACAUCGUUACCAGACAGUGUUA (ssRNA, 2'-OMe all, full PS) [DKLS687764 (SEQ 34)]	0.75	1.47
GCAGCAGUACGACGG (ssRNA, 2'-OMe all, full PS) [LSA_ATG 5' truncation 15 nt]	0.31	0.46
GAGGCAGCAGUACGACGG (ssRNA, 2'-OMe all, full PS) [LSA_ATG 5' truncation 18 nt]	1.06	0.77
UCUUAUGUUUCCGAACCGUU (ssRNA, 2'-OMe all, full PS) [DKLS370480 (SEQ 25)]	0.34	0.69
AGGCAGCAGUACGACGG (ssRNA, 2'-OMe all, full PS) [LSA_ATG 5' truncation 17 nt]	0.8	0.68
GUGCAUGGAAUCACGGAGU (ssRNA, 2'-OMe all, full PS) [Open_A 3' truncation 19 nt]	0.47	1.24
UCCUGGAUCCUUCACCAAUG (ssRNA, 2'-OMe all, full PS) [DKLS687192 (SEQ 28)]	0.76	1.08

Binder	binding signal (THOC4 (ALYREF)) [normalized Rmax]	binding signal (hSSB1) [normalized Rmax]
GGCAGCAGUACGACGG (ssRNA, 2'-OMe all, full PS) [LSA_ATG 5' truncation 16 nt]	0.49	0.64
UCAAGGAAGAUGGCAUUUCU (ssRNA, 2'-OMe all, full PS) [DKLS687764 (SEQ 14)]	0.55	1.12
UGUGCUAUUCUGUGAAUU (ssRNA, 2'-OMe all, full PS) [DKLS484655 (SEQ 22)]	0.22	0.43
UGUCAUAUUCCUGGAUCCUU (ssRNA, 2'-OMe all, full PS) [DKLS684387 (SEQ 29)]	0.87	1.38
GCCGGACUUGCCU (ssRNA, 2'-OMe all, full PS) [In3E3 5' truncation 13 nt]	0.01	0.22
CAGAGGCAGCAGUACG (ssRNA, 2'-OMe all, full PS) [LSA_ATG 3' truncation 16 nt]	0.53	0.46
UCUCCCAGCAUGUGCCAU (ssRNA, full PS) [DKLS658030 (SEQ 8)]	0.52	0.51
CAGAGGCAGCAGUACGAC (ssRNA, 2'-OMe all, full PS) [LSA_ATG 3' truncation 18 nt]	0.71	0.64
UAAGCUGUUCUAUGUGUU (ssRNA, 2'-OMe all, full PS) [DKLS463500 (SEQ 23)]	0.32	0.74
AGGCAGCAGUACGA (ssRNA, 2'-OMe all, full PS) [LSA_ATG both-end truncation 14 nt]	1.02	1.05
AGAGGCAGCAGUACGACGG (ssRNA, 2'-OMe all, full PS) [LSA_ATG 5' truncation 19 nt]	1.1	1.02
UGCUAUCUUAUCACCUUUAG (ssRNA, 2'-OMe all, full PS) [DKLS331584 (SEQ 26)]	0.15	0.48
GUGCAUGGAAUCACGGAG (ssRNA, 2'-OMe all, full PS) [Open_A 3' truncation 18 nt]	0.39	1.03
GUGCAUGGAAUCACGGA (ssRNA, 2'-OMe all, full PS) [Open_A 3' truncation 17 nt]	1	2.06
GGGACGCGGCGCUCGGUCAU (ssRNA, 2'-OMe all, full PS) [DKLS951212 (SEQ 30)]	1.35	2.13
CCAUCUGUAAUUACAAAAUUAAA (ssRNA, 2'-OMe all, full PS) [DKLS765774 (SEQ 16)]	0.97	1.93
AGAGGCAGCAGUACGACG (ssRNA, 2'-OMe all, full PS) [LSA_ATG both-end truncation 18 nt]	0.81	0.96
GAGGCAGCAGUACGAC (ssRNA, 2'-OMe all, full PS) [LSA_ATG both-end truncation 16 nt]	0.44	0.67
GCUCCAGCAUCUGCUGCUUC (ssRNA, 2'-OMe all, full PS) [DKLS491049 (SEQ 32)]	0.26	0.65
CUGCCUAAGUAAAAAGUGUAAAC (ssRNA, 2'-OMe all, full PS) [DKLS687118 (SEQ 15)]	0.51	1.21
UCUCCCAGCAUGUGCCAU (ssRNA, 2'-OMe all, full PS) [DKLS832163 (SEQ 11)]	0.33	0.31
